The term stoichiometry N denotes a count of units in the complex or per binding partner. As a reminder, the Kd is a measure of binding affinity in units of concentration.

Test [1] concerns the target native red deer GDF9 (red deer (endogenous in red deer oocytes)). Briefly: cross-linking; oocyte lysates of sheep, red deer and pig; 2 mM BS3, room temperature, 30 min, reducing SDS-PAGE, beside non-reducing and reducing lanes without cross-linker; Western blot with Mab61A or Mab37A. On the technique in general: Immunoblotting shows a protein as a band on a membrane.
Test [2] concerns the target recombinant pig BMP15 (pig). Briefly: cross-linking; recombinant HEK-293 conditioned media (positive control lanes); 2 mM BS3, room temperature, 30 min; reducing SDS-PAGE; Western blot with Mab61A (BMP15) or Mab37A (GDF9).
In test [3] the target is recombinant pig GDF9 (pig) (UniProt Q6GUA6). Described as above.
The next test has as its target T1, recombinant ovine GDF9 (sheep (ovine), UniProt O77681 319-453).
T1 construct: also called recovGDF9; sheep GDF9; source: 293H-secreted media, dialysed and concentrated (partially purified)
T1 sequence (looked up): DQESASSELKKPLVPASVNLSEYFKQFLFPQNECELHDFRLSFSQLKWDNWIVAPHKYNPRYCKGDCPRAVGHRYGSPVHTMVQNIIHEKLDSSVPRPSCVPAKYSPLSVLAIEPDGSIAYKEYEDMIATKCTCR
Briefly: SPR; ProteOn XPR36; biotinylated hBMPR2 captured (~200 RU) on a streptavidin-coated GLC chip; log2 serial dilutions of partially purified (dialysed, concentrated) 293H-secreted GDF9 or BMP15 as analytes; 25 °C, 100 µl/min; 10 mM HEPES, 500 mM NaCl, 3.4 mM EDTA, 0.005% Tween 20; association 120 s; analyte concentrations not known. As to conditions: one partner purified. For orientation: Surface plasmon resonance follows binding to a sensor surface in real time, without labels.

In turn, native red deer GDF9 (natural protein) came in with a stoichiometry N in test [1] of 2.

For recombinant pig BMP15 (ligand), the stoichiometry N in test [2] came to 2.

As to “recombinant pig GDF9 (from UniProt Q6GUA6 1-444) (ligand)”, the stoichiometry N in test [3] is 2.

B1: recombinant human (h)BMPR2 ectodomain (receptor, UniProt Q13873 27-151, looked up)
chain: SQNQERLCAFKDPYQQDLGIGESRISHENGTILCSKGSTCYGLWEKSKGDINLVKQGCWSHIGDPQECHYEECVVTTTPPSIQNGTYRFCCCSTDLCNVNFTENFPPPDTTPLSPPHSFNRDETI
modifications: N-biotinylated using EZ-Link sulfo-NHS-LC-biotin (1:1.2 molar ratio)
notes: human BMPR2, extracellular domain, amino acids 27 to 151; captured on a streptavidin-coated sensor chip by its biotin; also called hBMPR2 ectodomain protein; Type 2 receptor; source: baculoviral infected Sf9 insect cells, purified
Consider B1, for which, in the test with recombinant ovine GDF9, the Kd is around 1 nM.

(Values after article PMC10725505, “Molecular forms of BMP15 and GDF9 in mammalian species that differ in litter size” (Scientific Reports, 2023).)
